Reference: US20100305304A1 (COMPLIX, published 2010)

How the values were obtained:
[1] = molecular target: the molecule itself; assay: self-association of the peptide chains into a homotrimer; sedimentation equilibrium ultracentrifugation
[2] = molecular target: the molecule itself; assay: self-association of the peptide chains into a homotrimer; CD thermal unfolding curve fitted to a monomer-trimer equilibrium
Method: The said synthesized peptide was dissolved at a concentration of 292 microM in 20 mM phosphate buffer (PBS), 150 mM NaCl, pH 7.2. The CD spectra were measured between […], at 5 and 90 degrees Celsius (FIG. 3). The spectrum at 5 degrees Celsius was indicative of a high alpha-helical secondary structure content, in agreement with the expectation that all heptad regions, but not all of the flanking residues, would assemble as alpha-helical coiled coils.
To analyse whether the temperature-induced transition between helical and nonhelical states was reversible, a forward (up) and backward (down) thermal scan was performed on the same sample, by recording the CD signal at […] as a function of temperature at a scanning rate of about 1 degree Celsius per minute (FIG. 4). It was observed that the up and down scans almost perfectly coincided, thereby confirming the quantitative unfolding and refolding of the peptides in the sample.
FIG. 5 represents fitting of a theoretic equation for trimeric association to experimental data. The experimental data are taken from FIG. 4, curve labeled “UP”. The theoretic equations used are listed supra. The fitted parameters (fitting results) are listed at the right in FIG. 5. “Transit. T” corresponds to Tₜ, but is expressed here in degrees Celsius. The parameter “delta Cₚ” was kept constant at 3.0 kJ mol⁻¹ K⁻¹. […]

Protein | binding result [1] | binding result [2]
Ac-MSIEEIQKQIAAIQKQIAAIQKQIYRMTP-NH2 (Synthetic peptide; also called untagged peptide) [Q2aI peptide (Ac-MSIEEIQKQIAAIQKQIAAIQKQIYRMTP-NH2)] | binds | –
Ac-MSIEEIQKQQAAIQKQIAAIQKQIYRMTP-NH2 (Synthetic peptide; Three copies associate non-covalently into a parallel alpha-helical coiled coil; also called untagged peptide) [reference peptide Q2a (Ac-MSIEEIQKQQAAIQKQIAAIQKQIYRMTP-NH2)] | – | binds
